According to patent US9618524B2, “Method, composition, isolation and identification of a plaque particle and related biomarker” (Plaxgen Inc., priority 2012, dated 2017):

How the values were obtained:
Assay in all cases: Mass spectroscopy proteomics, semi-quantitative binding affinity of serum proteins (plaqueproteome, Table 2)
Conditions in all cases: higher number = stronger affinity
[1] = target: T1, Abeta-42 plaque particles (Homo sapiens, UniProt P05067)
T1 construct: Abeta 1-42
In short: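 AD patient serum or plasma (50% in PBS) was incubated with Abeta-42 aggregates (30 μg) for 1 h at 37 °C, then stained with Thioflavin S for 30 min. Labeled particles were FACS-sorted, trypsin/Lys-C digested overnight and analyzed by MS/MS. Sequest searched human UniProt; Scaffold/Protein Prophet validated the identifications.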

[2] = test system: High Density cholesterol (Chl Large) plaque particles; set-up: species or system human
In short: (§1)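 Read-out is MS/MS protein identification (Sequest, strict trypsin, 20 ppm parent tolerance; Scaffold probabilities) of serum proteins bound to flow-sorted cholesterol plaque particles. These particles formed when 50% atherosclerotic serum was incubated with 30 μg cholesterol aggregates for 1 hr at 37° C.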

[3] = test system: Low density cholesterol (Chl small) plaque particles; set-up: species or system human
In short: as §1

[4] = target: T2, alpha-synuclein plaque particles (Homo sapiens, UniProt P37840)
T2 construct: 140 amino acids polypeptide
In short: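 AD-subject plasma or serum (800 μL of 50%) mixed with 30 μg preformed alpha-synuclein aggregates for 1 h at 37 °C; Thioflavin S-positive particles isolated by flow sorting. After reduction, acrylamide alkylation and overnight tryptic digestion, serum proteins identified by MS/MS with Sequest and Scaffold.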

[5] = test system: Tau plaque particles; set-up: species or system human
In short: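 Serum or plasma proteins captured on Thioflavin S-labelled Tau plaque particles (Tau-74, Tau-275 oligomers preformed in PBS at 37° C for 2 h; 1 h co-incubation at 37° C) were isolated by FACS sorting, then tryptically digested and identified by MS/MS (Sequest, human UniProt, strict trypsin).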

B1: Inter-alpha-trypsin inhibitor heavy chain H1 (protein)
chain: SKSSEKRQAVDTAVDGVFIRSLKVNCKVTSRFAHYVVTSQVVNTANEAREVAFDLEIPKTAFISDFAVTADGNAFIGDIKDKVTAWKQYRKAAISGENAGLVRASGRTMEQFTIHLTVNPQSKVTFQLTYEEVLKRNHMQYEIVIKVKPKQLVHHFEIDVDIFEPQGISKLDAQASFLPKELAAQTIKKSFSGKKGHVLFRPTVSQQQSCPTCSTSLLNGHFKVTYDVSRDKICDLLVANNHFAHFFAPQNLTNMNKNVVFVIDISGSMRGQKVKQTKEALLKILGDMQPGDYFDLVLFGTRVQSWKGSLVQASEANLQAAQDFVRGFSLDEATNLNGGLLRGIEILNQVQESLPELSNHASILIMLTDGDPTEGVTDRSQILKNVRNAIRGRFPLYNLGFGHNVDFNFLEVMSMENNGRAQRIYEDHDATQQLQGFYSQVAKPLLVDVDLQYPQDAVLALTQNHHKQYYEGSEIVVAGRIADNKQSSFKADVQAHGEGQEFSITCLVDEEEMKKLLRERGHMLENHVERLWAYLTIQELLAKRMKVDREERANLSSQALQMSLDYGFVTPLTSMSIRGMADQDGLKPTIDKPSEDSPPLEMLGPRRTFVLSALQPSPTHSSSNTQRLPDRVTGVDTD
Which results are given for B1?
Semi-quantitative analysis of proteins binding to different plaque particles: Abeta-42 [1]: 7; Semi-quantitative analysis of proteins binding to different plaque particles: Chl Large [2]: 11; Semi-quantitative analysis of proteins binding to different plaque particles: Chl small [3]: 7; Semi-quantitative analysis of proteins binding to different plaque particles: Synuclein [4]: 10; Semi-quantitative analysis of proteins binding to different plaque particles: Tau [5]: 18
